This note sets out measurements from patent publication US10064928B2, “Peptides and combination of peptides for use in immunotherapy against CLL and other cancers” (IMMATICS BIOTECHNOLOGIES GMBH, priority 2015, dated 2018).

One assay deals with HLA-A*02:01 (Homo sapiens, UniProt P04439, D140Y/D185E/D98H/E176V/E277Q/G131W/G231S/I119V/I121R/I166T/I218V/L300P/L318F/N151K/N90K/P208A/P217A/Q86G/Q94H/R138H/R169H/T345S). Kind of assay: MHC binding assay (UV-ligand exchange, beta2m ELISA). The settings on record: binding of HLA-class I restricted peptides to HLA-A*02:01, β2m ELISA. An outline of the steps:
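UV-cleavable peptide in HLA monomers exchanged for test peptide by UV irradiation; exchange yield measured by streptavidin-capture ELISA with HRP anti-β2m (TMB, 450 nm) on 100-fold diluted complexes. Quantified against refolded HLA-A*02:01/MLA-001 standards (15-500 ng/ml).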
For orientation: ELISA stands for enzyme-linked immunosorbent assay.

A further assay relates to CD8+ T cells. Kind of assay: In vitro T-cell priming assay with aAPCs loaded with peptide/MHC and anti-CD28, multimer readout. In kind it is cell-based, human. The settings on record: in vitro immunogenicity, percentage of positive wells; for Wells positive [%]: HLA-A*02 restricted peptides; for wells: healthy HLA-A*02 donors. The text has this: In order to obtain information regarding the immunogenicity of the TUMAPs of the present invention, the inventors performed investigations using an in vitro T-cell priming assay based on repeated stimulations of CD8+ T cells with artificial antigen presenting cells (aAPCs) loaded with peptide/MHC complexes and anti-CD28 antibody.
In order to perform in vitro stimulations by artificial antigen presenting cells loaded with peptide-MHC complex (pMHC) and anti-CD28 antibody, the inventors first isolated CD8+ T cells from fresh HLA-A*02 leukapheresis products via positive selection using CD8 microbeads (Miltenyi Biotec, Bergisch-Gladbach, Germany) of healthy donors obtained from the University clinics Mannheim, Germany, after informed consent.
PBMCs and isolated CD8+ lymphocytes were incubated in T-cell medium (TCM) until use consisting of RPMI-Glutamax (Invitrogen, Karlsruhe, Germany) supplemented with 10% heat inactivated human AB serum (PAN-Biotech, Aidenbach, Germany), 100 U/ml Penicillin/100 μg/ml Streptomycin (Cambrex, Cologne, Germany), 1 mM sodium pyruvate (CC Pro, Oberdorla, Germany), 20 μg/ml Gentamycin (Cambrex). 2.5 ng/ml IL-7 (PromoCell, Heidelberg, Germany) and 10 U/ml IL-2 (Novartis Pharma, Nürnberg, Germany) were also added to the TCM at this step.
Generation of pMHC/anti-CD28 coated beads, T-cell stimulations and readout was performed in a highly defined in vitro system using four different pMHC molecules per stimulation condition and 8 different pMHC molecules per readout condition.
The purified co-stimulatory mouse IgG2a anti human CD28 Ab 9.3 (Jung et al., 1987) was chemically biotinylated using Sulfo-N-hydroxysuccinimidobiotin as recommended by the manufacturer (Perbio, Bonn, Germany). Beads used were 5.6 μm diameter streptavidin coated polystyrene particles (Bangs Laboratories, Illinois, USA).
800.000 beads/200 μl were coated in 96-well plates in the presence of 4×12.5 ng different biotin-pMHC, washed and 600 ng biotin anti-CD28 were added subsequently in a volume of 200 μl. Stimulations were initiated in 96-well plates by co-incubating […] CD8+ T cells with 2×10^5 washed coated beads in 200 μl TCM supplemented with 5 ng/ml IL-12 (PromoCell) for 3 days at 37° C. Half of the medium was then exchanged by fresh TCM supplemented with 80 U/ml IL-2 and incubating was continued for 4 days at 37° C. This stimulation cycle was performed for a total of three times. For the pMHC multimer readout using 8 different pMHC molecules per condition, a two-dimensional combinatorial coding approach was used as previously described (Andersen et al., 2012) with minor modifications encompassing coupling to 5 different fluorochromes. Finally, multimeric analyses were performed by staining the cells with Live/dead near IR dye (Invitrogen, Karlsruhe, Germany), CD8-FITC antibody clone SK1 (BD, Heidelberg, Germany) and fluorescent pMHC multimers. For analysis, a BD LSRII SORP cytometer equipped with appropriate lasers and filters was used. Peptide specific cells were calculated as percentage of total CD8+ cells. Evaluation of multimeric analysis was done using the FlowJo software (Tree Star, Oreg., USA). In vitro priming of specific multimer+CD8+ lymphocytes was detected by comparing to negative control stimulations.

As to “1 (AIPPSFASIFL; listed as Homo sapiens) [compound 1]”, in the assay with HLA-A*02:01, the “Peptide Exchange (MHC class I binding score, peptide exchange yield)” value (shortened to “Peptide Exchange”) was ““+++” (≥50 = +++)”. In the assay on CD8+ T cells, the “Wells positive [%]” value is given as ““+++” (50%-69% = +++)”.

For “2 (ALHRPDVYL; listed as Homo sapiens) [compound 2]”, in the assay with HLA-A*02:01, the “Peptide Exchange” value is recorded as ““+++” (≥50 = +++)”. The “Wells positive [%]” value with CD8+ T cells is listed as ““+” (<20% = +)”.

With “5 (ALIFKIASA; listed as Homo sapiens) [compound 5]”, the “Peptide Exchange” value in the assay with HLA-A*02:01 is listed as ““+++” (≥50 = +++)”. Besides, in the assay with CD8+ T cells, the “Wells positive [%]” value is on record as ““+++” (50%-69% = +++)”.

Regarding “17 (ALTKTNLQL; listed as Homo sapiens) [compound 17]”, the “Peptide Exchange” value in the assay with HLA-A*02:01 is reported as ““+++” (≥50 = +++)”. The “Wells positive [%]” value with CD8+ T cells is listed as ““+” (<20% = +)”.

For the substance “26 (AVLLVLPLV; listed as Homo sapiens) [compound 26]”, the “Peptide Exchange” value in the assay with HLA-A*02:01 was ““+++” (≥50 = +++)”. Also, in the assay on CD8+ T cells, the “Wells positive [%]” value is given as ““+” (<20% = +)”.

As to “32 (FIDKFTPPV; listed as Homo sapiens) [compound 32]”, the “Peptide Exchange” value in the assay with HLA-A*02:01 is ““++++” (≥75% = ++++)”. Further, the “Wells positive [%]” value with CD8+ T cells is ““++++” (>=70% = ++++)”.

With “49 (FLTDLFAQL; listed as Homo sapiens) [compound 49]”, the “Peptide Exchange” value with HLA-A*02:01 is recorded as ““++++” (≥75% = ++++)”. In addition, the “Wells positive [%]” value in the assay with CD8+ T cells is listed as ““++” (20%-49% = ++)”.

Regarding “54 (FLYPFPLALF; listed as Homo sapiens) [compound 54]”, in the assay with HLA-A*02:01, the “Peptide Exchange” value is listed as ““+++” (≥50 = +++)”. In addition, the “Wells positive [%]” value in the assay with CD8+ T cells is ““+” (<20% = +)”.

As for “56 (FVFEAPYTL; listed as Homo sapiens) [compound 56]”, the “Peptide Exchange” value with HLA-A*02:01 was ““+++” (≥50 = +++)”. Also, in the assay on CD8+ T cells, the “Wells positive [%]” value is on record as ““++” (20%-49% = ++)”.

As for “57 (GLSEISLRL; listed as Homo sapiens) [compound 57]”, the “Peptide Exchange” value in the assay with HLA-A*02:01 was ““++++” (≥75% = ++++)”. Also, the “Wells positive [%]” value in the assay with CD8+ T cells is listed as ““+” (<20% = +)”.

With “69 (GLHQREIFL; listed as Homo sapiens) [compound 69]”, the “Peptide Exchange” value with HLA-A*02:01 is ““+++” (≥50 = +++)”. The “Wells positive [%]” value in the assay on CD8+ T cells is ““+” (<20% = +)”.

With “81 (WLVGQEFEL; listed as Homo sapiens) [compound 81]”, the “Peptide Exchange” value in the assay with HLA-A*02:01 is listed as ““+++” (≥50 = +++)”. The “Wells positive [%]” value in the assay on CD8+ T cells is reported as ““+” (<20% = +)”.

Turning to “86 (HLYPGAVTI; listed as Homo sapiens) [compound 86]”, in the assay with HLA-A*02:01, the “Peptide Exchange” value is reported as ““+++” (≥50 = +++)”. Also, the “Wells positive [%]” value with CD8+ T cells is reported as ““+” (<20% = +)”.

Consider “96 (ILIDKTSFV; listed as Homo sapiens) [compound 96]”, for which, in the assay with HLA-A*02:01, the “Peptide Exchange” value is on record as ““+++” (≥50 = +++)”. The “Wells positive [%]” value in the assay with CD8+ T cells is on record as ““+” (<20% = +)”.

Turning to “100 (ILNNEVFAI; listed as Homo sapiens) [compound 100]”, the “Peptide Exchange” value with HLA-A*02:01 was ““+++” (≥50 = +++)”. Besides, the “Wells positive [%]” value in the assay on CD8+ T cells is given as ““++” (20%-49% = ++)”.

“101 (ILVVIEPLL; listed as Homo sapiens) [compound 101]”: the “Peptide Exchange” value with HLA-A*02:01 is listed as ““++++” (≥75% = ++++)”. Besides, in the assay with CD8+ T cells, the “Wells positive [%]” value is listed as ““+” (<20% = +)”.

Turning to “102 (IQDRAVPSL; listed as Homo sapiens) [compound 102]”, in the assay with HLA-A*02:01, the “Peptide Exchange” value is ““++” (≥20% = ++)”. Moreover, in the assay on CD8+ T cells, the “Wells positive [%]” value is listed as ““+” (<20% = +)”.

“361 (ILQEFESKL; listed as Homo sapiens) [compound 361]”: in the assay with HLA-A*02:01, the “Peptide Exchange” value is on record as ““+++” (≥50 = +++)”.

With “362 (ILTELGGFEV; listed as Homo sapiens) [compound 362]”, the “Peptide Exchange” value with HLA-A*02:01 is listed as ““+++” (≥50 = +++)”.

In the case of “363 (ITTEVVNELYV; listed as Homo sapiens) [compound 363]”, the “Peptide Exchange” value in the assay with HLA-A*02:01 is reported as ““+++” (≥50 = +++)”.

Regarding “364 (KMDWIFHTI; listed as Homo sapiens) [compound 364]”, in the assay with HLA-A*02:01, the “Peptide Exchange” value is ““+++” (≥50 = +++)”.

“365 (LISPLLLPV; listed as Homo sapiens) [compound 365]”: in the assay with HLA-A*02:01, the “Peptide Exchange” value is ““+++” (≥50 = +++)”.

“367 (NLWSLVAKV; listed as Homo sapiens) [compound 367]”: the “Peptide Exchange” value with HLA-A*02:01 was ““+++” (≥50 = +++)”.

Turning to “369 (RLLDLENSLLGL; listed as Homo sapiens) [compound 369]”, the “Peptide Exchange” value with HLA-A*02:01 is recorded as ““+++” (≥50 = +++)”.

On to “370 (SIFASPESV; listed as Homo sapiens) [compound 370]”, for which, in the assay with HLA-A*02:01, the “Peptide Exchange” value is on record as ““+++” (≥50 = +++)”.

Regarding “371 (SLADDSVLERL; listed as Homo sapiens) [compound 371]”, in the assay with HLA-A*02:01, the “Peptide Exchange” value was ““+++” (≥50 = +++)”.

Regarding “372 (SLFGPLPGPGPALV; listed as Homo sapiens) [compound 372]”, the “Peptide Exchange” value with HLA-A*02:01 was ““+++” (≥50 = +++)”.

In the case of “373 (TLLADQGEIRV; listed as Homo sapiens) [compound 373]”, the “Peptide Exchange” value with HLA-A*02:01 was ““++” (≥20% = ++)”.

Turning to “374 (VLSVITEEL; listed as Homo sapiens) [compound 374]”, in the assay with HLA-A*02:01, the “Peptide Exchange” value is listed as ““+++” (≥50 = +++)”.

As to “375 (VLWFKPVEL; listed as Homo sapiens) [compound 375]”, the “Peptide Exchange” value with HLA-A*02:01 is listed as ““+++” (≥50 = +++)”.

As to “376 (VLYNQRVEEI; listed as Homo sapiens) [compound 376]”, the “Peptide Exchange” value in the assay with HLA-A*02:01 is on record as ““+++” (≥50 = +++)”.

Consider “377 (VVDGTCVAV; listed as Homo sapiens) [compound 377]”, for which the “Peptide Exchange” value with HLA-A*02:01 was ““+++” (≥50 = +++)”.

For the substance “378 (YILGKFFAL; listed as Homo sapiens) [compound 378]”, the “Peptide Exchange” value in the assay with HLA-A*02:01 is reported as ““+++” (≥50 = +++)”.

Consider “379 (YLAELVTPIL; listed as Homo sapiens) [compound 379]”, for which the “Peptide Exchange” value with HLA-A*02:01 is recorded as ““+++” (≥50 = +++)”.

Take “381 (YLLEENKIKL; listed as Homo sapiens) [compound 381]”: the “Peptide Exchange” value in the assay with HLA-A*02:01 is given as ““+++” (≥50 = +++)”.

“382 (YLLPLLQRL; listed as Homo sapiens) [compound 382]”: in the assay with HLA-A*02:01, the “Peptide Exchange” value was ““++++” (≥75% = ++++)”.

On to “383 (YLLREWVNL; listed as Homo sapiens) [compound 383]”, for which, in the assay with HLA-A*02:01, the “Peptide Exchange” value was ““++++” (≥75% = ++++)”.

As to “384 (YMIGSEVGNYL; listed as Homo sapiens) [compound 384]”, in the assay with HLA-A*02:01, the “Peptide Exchange” value was ““++++” (≥75% = ++++)”.

On to “385 (YTIPLAIKL; listed as Homo sapiens) [compound 385]”, for which the “Peptide Exchange” value with HLA-A*02:01 was ““+++” (≥50 = +++)”.

Turning to “427 (LLYDAVHIV; listed as Homo sapiens) [compound 427]”, the wells entry in the assay on CD8+ T cells is reported as “++ (20%-49% = ++)”.

For “521 (YLYGQTTTYL; listed as Homo sapiens) [compound 521]”, the wells result with CD8+ T cells is “++ (20%-49% = ++)”.
